Measurements: the DeepSol protein solubility set

Experiment: soluble on expression in E. coli; label from the status in PepcDB or PDB records

| Sequence | soluble on expression in E. coli |
| --- | --- |
| MTDPSQMQAEELLSFLEEGGTLKMLHDVSADTIEHIYAVGYNFFQSGKIEQAAKVFQLLSMLDHYQARFFIGLGAARQELGEYLQAIDAYSYAALVDINDPRPPFHSAECHLKLEQLTEAESGFYSAKEMSAGKSQYADLHQRAGIMLEAVRNKRSNLEHHHHHH | soluble |
| MERPLARNEVTRLGPDSKFHHAGLRRGLSPATLRKLDAISRLRVFPRDAVVVPQGGALEYVGNVVRGVLRMERLLSDGRSQIVGLLVPTDMFGRVFSERSDYSVEAATEVTLCCFERHAFEALVRTCPDLEHAVLLAVLDELDAAREWITLRAGPTVAARLATYLLMLCRRWPHQTSELTQDAKRIVVNVPIARNDLAHYLGTTVESISRAVQAFSRDGIISILTPLRFEILDLPALIALSDNEEFDAHALLEGLREEQRVSP | not soluble |
| MCLAIPMQIESIDGFTARCAAKGVWRDVSLFMMQDAPPEVGDFVMVHVGYAIQKVTEADARSAWELLDQILEENGA | not soluble |
| MLNSEKMIASLDQQDLAHAEKYFQKALKEDDADSLIALGEYLESIGFLPHAKRIYLQLADDYPELNINLAQIAAEDDAIEEAFLYLDKVSKDSPNYLSALLVMADLYDMEGLTEVAREKLLQAVGISPEPLVIFGLAEIDMSLQHFKEAIDYYAQLDNRQILELTGISTYQRIGRAYASLGKFEAAIEFLEKAVAIEYEDETVFELATLMYDQENYQKANLYFKQLETINPDYPGYEYGYALSLHEEHKTSEALRLVQQGLRKNAFDSQLLLLASQLSYELHDRQNAENYLLQAKEVAVDDEEILMRLVTLYFDAERFEEVIALNRETIDNVLTKWTIAKAYHALEQEEVALALYNEISADLAENPEFLQDYAYLLREFGQFHKAIQMATAYLRQVPDDVNMQDFLDHIKHQQSE | not soluble |
| TKDFNWNSTFNIAYNSSDVKYLGIDGTGEKIKRLTLDGANSRVGSVSVQNILGHPYGELVGYEYKRTSDGQVIFENGLPVHSDEVQVLGNGVYKVTGGWRNEFTYKNITLSFLIDFKAGAKMFSGTNLSLYSNGLHKNTLQGRGADGKGTMVGNGVMSDGKGGYVKNTVAVSAQDYWQAITSQNIAEEFVYNASFIKLRELSVGYTLPQAWLNKQTLIKGVTLSLVGRNLWTILKHTDNIDPESAYNNGNAQGLELNGYPATRNVGFNVNVKF | not soluble |
| MGSDKIHHHHHHATRSGKTPVSVELEIGGLPGDESVDDAIDPDLENPNTSFDLLFIPKEFTFETQAISGDLTAVPIRPSEGNTHTMRHFGMGDVRGALTGWHVTAEIPHMRNEAHSLLGIITFQLTGSYARYDKTLRRFFMTNTMYGLDFSEDPAAPDFPTNPIIIGNGATLMSNAGDRKGQGMWSGRMTDISLAIQTPVSQLFPGAYTGSIIWNLISGPV | not soluble |
| MTSVLNSFWLGIKVPLRKAVYWLQYNLLKRKRNAFNILMAEETIDYIVKHECSVCRYGDGEIDMITCLKEGFDESRKSDFQTYDEKLAWRLKQILGNGSDEELNLIVCIPYVWKSHRSLSFTARRFIERSFVNNREMIFASIHPTRLYGDSYFTRFYIDARNKKKKGSYIQHCRQIWQGRDLCIIEGEQSRLGVGNDLFDNAQSIERILCPALDAFAKYDEIMKAACTVNKAKLVLIALGHTATVLAYDLAEVGYQAIDIGHIDIEYEWFLMRAPKKVPVPHKYVNEVPEGRQFSEERNKEYLSQIIYSVK | not soluble |
| ADKAASGVLTKLPQKQIQEMKEAFSMIDVDRDGFVSKEDIKAISEQLGRAPDDKELTAMLKEAPGPLNFTMFLSIFSDKLSGTDSEETIRNAFAMFDEQETKKLNIEYIKDLLENMGDNFNKDEMRMTFKEAPVEGGKFDYVKFTAMIKGSGEEEA | soluble |
| MGSDKIHHHHHHMSGYKVFIVDDEADIALILKLQLEDAGYRTMRARDGIEALDALERESFDLVLLDIRMPRMDGIEVLERIRDRWPDLVVIMMTAHGSEDIAVEAMKKGAVDYISKPFSSDDMKKRVERAIQFNRTRLENERLQRVLDEERRKMGAILRGMADLLVAVDREGRIITINRAAEERFGIAADGVQNQPVELLLKTDIPGERLPCRVVLATGDPCLDVTYAVQAGGGMIPVLSSATPLKGAGGEMMGCVEIIRDISTLKALEREREDFVSMLSHDLKTPITAVVGSIDLVREGRIGPVNAEQRSYLDSAMESCAEMVDMIDTLLDVHRFEAGRMVMAARLEDLGPLMARTLGRFDSVARRAGIALVLTLPDYPLALSLDRNQFARLMGNLIANAIKFTQEGGEIEVSARLLNDPAELVGRIPRESYPDVPLPPLNPHLLITVRDTGVGIPADSLVSIFDRFVQARNRRLGKSTGTGLGLAFCRKVMDAHHGYIWAESVEGEGSSFNMLFPLTNEAYAATGG | not soluble |
| MAHHHHHHMPHAGNKLVPIGCNMNDAAYPFRGEHRLANCINHGHSGVVKRIPTSIAMRISGSNLVIEEVKTPKGVELECELGVDGGIARPVSLQQASAFMVPSDGHNYNLIAAVKASGNPMKHYCKLTFNGSEGITVLRMRAPEGCSPDAVYIVADGRRLRPTAGWFRIPIHTKECALVANLPLDDAPPPPPPPPPPPPPPPSFSFTATPPLPPAPSGGLAEKTLEATTGAPWTAENVPELETRIHPPLIPNAGAVTLTEPVPAAMPSFVATAPGFSLQLTGENGSSVFGVGVAALPLSHRRAQTVQIVVSDAQGRVLLRQRSHVPSLEPAAVSLAVKDDGKGGLALSANPGSKITVGGVPQADPSATAVLPRVVPQRAVVEQPNADGSVSKATLDVAPTSEPAPVSAAVSKQLPQQPQAPALPEAWVKELSDALQNSNPEEQRHLLQRIYPSSIPGVTIVNFVRDQLTRQPPAISFTVSSNGLEAVQCPGCSVTAAVGNDPARQIPAFGSVALASGKSALLTATSTVRHSAVSACRVQIGVPSAVAFTSPTVSAYPPHAAAGPPMQAGPSADERADSDVVSRLVDCLLRHNLSAPLVARELDSMSTAPFSAQGRRMLSLLTSCLRSATASGAAAAMQAASTQAAAITHAAPEEIFFTCGPGYVDNIYTTQPQYQLFGAVDNQAPQGGAAARPDTCAGYSRG | not soluble |
| MGSDKIHHHHHHMKVVKFGGSSLASGAQLDKVFHIVTSDPARKAVVVSAPGKHYAEDTKVTDLLIACAEQYLATGSAPELAEAVVERYALIANELQLGQSIIEKIRDDLFTLLEGDKSNPEQYLDAVKASGEDNNAKLIAAYFRYKGVKAEYVNPKDAGLFVTNEPGNAQVLPESYQNLYRLRERDGLIIFPGFFGFSKDGDVITFSRSGSDITGSILANGLQADLYENFTDVDAVYSVNPSFVENPKEISELTYREMRELSYAGFSVFHDEALIPAFRAGIPVQIKNTNNPSAEGTRVVSKRDNTNGPVVGIASDTGFCSIYISKYLMNREIGFGRRALQILEEHGLTYEHVPSGIDDMTIILRQGQMDAATERSVIKRIEEDLHADEVIVEHHLALIMVVGEAMRHNVGTTARAAKALSEAQVNIEMINQGSSEVSMMFGVKEAEERKAVQALYQEFFAGVLIS | not soluble |
| GLPARSSSISNTNRTGENPMITPIISSNLGLKHRVTLRKATLASLMQSLSGESSNRVMWNDRYDTLLIARDPREIKNAIEKSVTDFGGLENYKELTGGADPFALMTPVCGLSANNIFKLMTEKDVPIDPTSIEYLENTSFAEHVNTLDSHKNYVVIVNDGRLGHKFLIDLPALTQGPRTAYIIQSDLGGGALPAVRVEDWISRRGSDPVSLDELNQLLSKDFSKMPDDVQTRLLASILQIDKDPHKVDIKKLHLDGKLRFASHEYDFRQFQRNAQYVAGLG | soluble |
| MAHHHHHHMDHQDLKPVIWHKTEKKTKPKDIHEARKLGIDVEVEKKYFGGKNKSSKGNLIIENKAKIEQETENFKIDRVTPAFSRALQQARISKKLTQAQLARLVNESESVIKEYENGKAIPNNVIIQKLNKVLGVNLPSPKKK | soluble |
| MKKEFSAGGVLFKDGEVLLIKTPSNVWSFPKGNIEPGEKPEETAVREVWEETGVKGEILDYIGEIHYWYTLKGERIFKTVKYYLMKYKEGEPRPSWEVKDAKFFPIKEAKKLLKYKGDKEIFEKALKLKEKFKL | soluble |
| MSHSYSVPKKFPTTVVGSYPKIGPASEAIKKRRAGEISEEEFHRIARESIRMVVEDYIWAGVDIISDGEQTREDMVVYFAERLEGYREGDWVRVFDNVYFRKPIVAGRVRWVRPMIIEDWEYARSISAGRPVKFIITGPYTMLEWSFDLHYGDRRELIFDLARAIRREIDEALARGAEYIQVDEPALSTRPFKEEAELLKEALDIIFKGVGAKRIVHICYGELERILPYILDYPVDQFDLEMKNSNFRLLPYLKEYGYDKEIGYGVIDVHSFQVESVGEVKEAIDRLMKMDIVGPEKVYVDPDCGLKRLPRDVARAKLKNMVEAARLAREEWMAGDPLEHHHHHH | not soluble |
| MRKKDAYISQVKVRQDPVNQLAVEMRAKRFGLTIEEAKNPLAGSYVGRLCLQGVLTQDQYDATQKYLEVRNDYSCAKGLPSAVYDEKPSSSDDKAREKWVERATEQFCNTQKVLKEAQCLYRQHNLYAALQYLVMEDQELPHLVNALRIALNTLQKYFDPKSKWEMFYCYEKLLKNR | not soluble |
| MKLLLLIFVPFVTCGLTCMDFMIDCPRIVYYCDETYVQNQCQFSCGICKQDPGVCGDTYFDCDMYDTKCNSPSFQRQCAGTCGLCPGACEDIWDGCSHFLAPCSDDIKSLCPIKCGLCNSTTTPMILTTITPVDPRCVDAGNQCANYSPPCSDDVKIFCPATCGSCSNGTTGVPLVLTTLTPELTTVTVEPITSTLKPTTTTITPTTTTKLPTTTTKKLPPTTPKPPCKDSSPNCAGWAKNGFCTNTFYPPEKRKEYCGKTCRMC | not soluble |
| MISGHGDFPIALKESSGMIFGEENNLIAVPFFKGEGIQTLQEKYHQALKDIPEEHEVLFLVDIFGGTPYNAAASFIAEDQRMDMAAGVNLPILLEVLSLREHLALKDLLNNLKAMSQQSFQVCSEHLEKVKTANQD | not soluble |
| VRMILDTIPKKNRHLVTTHDGYSYLGDAYGLSIAGFVSPNPSVEPSPRDIIALTRTLENLHVPAVFIEPQLALRANHLTVTADKLGIQVCRIYGDSLDDEVPTYLDFMKYNAHSLARCLGQSEGK | not soluble |
| GGDVLERQMALMAQAAQRVQDMKRFVWDSLDSMPEPVVVTDLAGTVLIANHAAKRYCARLSAPAPEGRPLRVAFGELSFVKTVDGNAEQDVEIRSHWPAALDPTRDYENDVMERGIEVRDLSGLDHLLRYAPCTNAQGNVTGWIASLVDVTALHAAERQREEALHLLSHDM | soluble |
| GPGSMSSSAPLSTQQPAPLPLQRQQQQQSTQSMLDAIRQQGWGSASSGGGDAMPSDASSRGMEGHSGAKLACPQMHEGHSAISSRPFNSEGADKPFAAVAATREASEAAKNSYDSMQPSADSQQLRGAEGECALPGHANAAAAAATLRNTNGVCEAIVTAARYGRSMEPSASVPAVTATAALVNVVAEEKERRRLSGPFGSYSTTDEVFHQKCNDVQRGSAIESADSRTDASGGALVVSPAYAAVPARVSEAPSPVDAEMQQLLADARRAYTAAEERLLSDGLALREDWMGTRDLFFAAGSLFAAVGEAADAARCLLHATFINRAFQNDSEAMVTLAMSVEQLKQSHPRIAVDSLLRLAPCYAQQDLRYQAARCHRDAAEILENILEAKEEAVVQYRAALDMYAETKVAAAETARRWERQQQQQRTAAIWGDLTGTPPLPPSAGASATNGDLTSPTAPGGVEATSLGSEQPFVSPKSTAPVPSSGGDSLTSSVNGQKPHSLEFPAHGPPQYRVSTTVQRSLADSCRWRLMILLTLLGRYDEAREAALDCAANVPRTLPKTKYLLYATLCVLARGASVKTDSTANSVSDPAAAAEAAQAPETPTTPFTAAAADTVYFDSLYDTEKFFLGLQDEDRTFQRGKENALVRALLAANRACSLTAFDEAVRAYKEYSTTEPCAAFELLAGECRRSLFEHMERFA | not soluble |
| MFSKTVVVLLMVVPAISLAQPASPLVLKKSHGAFCHLCEDLIKDGKEAGDVALDVWLDEEIGSRCKDFGVLASECFKELKVAEHDIWEAIDQEIPEDKTCKEAKLC | not soluble |
